The target of one data set is UbcH5B (UniProt P62837 1-147). Briefly: SPR.
The data set “SEC” deals with the molecule itself. Briefly: SEC.
Data set [1] addresses UbcH5BS~Ub (UbcH5B C85S covalently ester-linked to the C-terminus of ubiquitin) (UniProt P62837;P0CG48, C85S). The data set is described as follows: SPR.
The target in another data set is UbcH5BS D117A~Ub (UniProt P62837;P0CG48, C85S | D117A). Briefly: SPR. (In SPR one partner is held on a chip, and binding of the other changes the refractive index at the surface.)

Changes are numbered by the printed parent chain. In names and notes the source's numbering stands.

B1: RNF2(1–114)–BMI1(1–109) (complex)
chain 1: MSQAVQTNGTQPLSKTWELSLYELQRTPQEAITDGLEIVVSPRSLHSELMCPICLDMLKNTMTTKECLHRFCADCIITALRSGNKECPTCRKKLVSKRSLRPDPNFDALISKIY
chain 2: MHRTTRIKITELNPHLMCVLCGGYFIDATTIIECLHSFCKTCIVRYLETSKYCPICDVQVHKTRPLLNIRSDKTLQDIVYKLVPGLFKNEMKRRRDFYAAHPSADAANG
Take B1: the Kd (commonly the concentration at which binding is half-saturated) with UbcH5B is 91 µM. In other words, the double-digit micromolar range.

B2: BIRC7 I284A (as in size exclusion chromatography and ubiquitination assays) (enzyme)
chain: MGPKDSAKCLHRGPQPSHWAAGDGPTQERCGPRSLGSPVLGLDTCRAWDHVDGQILGQLRPLTEEEEEEGAGATLSRGPAFPGMGSEELRLASFYDWPLTAEVPPELLAAAGFFHTGHQDKVRCFFCYGGLQSWKRGDDPWTEHAKWFPSCQFLLRSKGRDFVHSVQETHSQLLGSWDPWEEPEDAAPVAPSVPASGYPELPTPRREVQSESAQEPGGVSPAEAQRAWWVLEPPGARDVEAQLRRLQEERTCKVCLDRAVSIVFVPCGHLVCAECAPGLQLCPACRAPVRSRVRTFLS
As for B2, the stoichiometry N (as a rule, the number of molecules, sites or subunits per partner or assembly) in the data set “SEC” is 2.

B3: BIRC7 R286A (as in size exclusion chromatography and ubiquitination assays) (enzyme)
chain: B2 chain with A284I, R286A
For B3, the “stoichiometry N” value in the data set “SEC” came to 2.

B4: BIRC7 F296H (as in size exclusion chromatography and ubiquitination assays) (enzyme)
chain: B2 chain with A284I, F296H
On to B4, for which, in “SEC”, the “stoichiometry N” value came out at 2.

B5: GST-BIRC3(541–C) (domain or fragment)
chain: DLPVEEQLRRLQEERTCKVCMDKEVSIVFIPCGHLVVCKDCAPSLRKCPICRSTIKGTVRTFLS
B5 gave a Kd in data set [1] of 5 µM.

B6: MDM2(428–C)–MDMX(428–C) (complex)
chain 1: SSLPLNAIEPCVICQGRPKNGCIVHGKTGHLMACFTCAKKLKKRNKPCPVCRQPIQMIVLTYFP
chain 2: EDCQNLLKPCSLCEKRPRDGNIIHGRTGHLVTCFHCARRLKKAGASCPICKKEIQLVIKVFIA
As for B6, in data set [1], the affinity, expressed as Kd, was 130 µM.

B7: GST-BIRC7 full length (enzyme)
chain: B2 chain with A284I
Turning to B7, the Kd with UbcH5BS D117A~Ub was determined as 191 µM; in data set [1], 181 µM.

B8: GST-BIRC7(239–C) (domain or fragment)
chain: VEAQLRRLQEERTCKVCLDRAVSIVFVPCGHLVCAECAPGLQLCPICRAPVRSRVRTFLS
B8 came in with a Kd in data set [1] of 136 µM.

Source of the values: article PMC3880866 (Nature structural & molecular biology, 2012).
